In article PMC4976356, “Structural insight into β-Clamp and its interaction with DNA Ligase in Helicobacter pylori” (Scientific Reports, 2016):

Legend:
[1] = target: the molecule itself; test: SEC; gel filtration on HiLoad G200 16/60; 30 mM Tris pH 7.5, 150 mM NaCl, 5% glycerol, 30 mM arginine, 6 mM βMe
[2] = target: T1, NAD-dependent DNA ligase from Helicobacter pylori 26695 (Helicobacter pylori 26695, UniProt O25336 1-656); conditions: both partners purified
T1 construct: Cloned and expressed in a similar manner to the β-clamp (NcoI/XhoI, pET 28(b)); by the printed forward primer Met-Gly would stand before Met1, and the reverse primer has no stop codon, so a C-terminal vector His tag is likely (surmised); also called HpDNA ligase; Hpligase; source: E. coli BL21, purified (Ni Sepharose, HiLoad G200 gel filtration)

B1: β-clamp from Helicobacter pylori 26695 (natural protein, UniProt O25242 1-374, looked up)
chain: MKISVSKNDLENALRYLQAFLDKKDASSIASHIHLEVIKEKLFLKASDSDIGLKSYIFTQSSDKEGVGTINGKKFLDIISCLKDSNIILETKDDSLAIKQNKSSFKLPMFDADEFPEFPVIDPKVSIEVNAPFLVDAFKKIAPVIEQTSHKRELAGILMQFDQKHQTLSVVGTDTKRLSYTQLEKISIHSTEEDISCILPKRALLEILKLFYENFSFKSDGMLAVIENEMHTFFTKLIDGNYPDYQKILPKEYISSFTLGKEEFKESIKLCSSLSSTIKLTLEKNNALFESLDSEHSETAKTSVEIEKGLDIEKAFHLGVNAKFFLEALNALGTTQFVLRCNEPSSPFLIQESLDEKQSHLNAKISTLMMPITL
notes: DNA polymerase III beta subunit (β-clamp) of Helicobacter pylori 26695; domains I-III span Met1 to Leu374; Cloned between NcoI and XhoI of pET 28(b); the reverse primer has no stop codon, so a C-terminal vector His tag is likely (surmised); By the printed forward primer the ATG of the NcoI site is out of frame with the gene's own ATG; also called Hpβ-clamp; H. pylori β-clamp; source: E. coli …
- stoichiometry N [1]: 2
- Kd [2]: 1250 nM
